Assay results published in patent US20030059827A1, “Engineered protein binding domains and methods and systems for their design and use” (priority 2001, published 2003).

Molecular target: Biotin-GG-KQTSV
Test: micro-calorimetry (isothermal titration)

B1: wild-type PDZ (PDZ3 of PSD095) domain, Q62108 302-402 (protein, mouse, UniProt Q62108 302-402, looked up)
chain: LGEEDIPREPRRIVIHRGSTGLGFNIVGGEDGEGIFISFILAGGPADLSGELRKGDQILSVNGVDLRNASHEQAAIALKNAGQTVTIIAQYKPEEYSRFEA
B1 showed a Ka of 25700 M⁻¹ and a Kd of 39 µM.
